Laboratory results: the RNAGym collection of RNA variant scans (doi:10.1073/pnas.2313332121)

B1: TPR t1 (parent)
chain: GACCAAUCUGCCCUCAGAGCUCGAGAACAUCUUCGGAUGCAGAGGAGGCAGGCUUCGGUGGCGCGAUAGCGCCAACGUCCUCAACCUCCAAUGCAUCCCACCACAUGAUGAUGCCUGAAGAGCCUUGGUUUUUUG

Variants of: B1
Assay: polymerase ribozyme fitness, log enrichment relative to wild type (log ratio); higher = more active; in vitro selection for triplet polymerase activity
Procedure, shortened: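 After PCR construction and transcription, each subunit's mutant library from a heterodimeric triplet polymerase ribozyme was annealed with a biotinylated primer, the partner subunit and triplets. Incubation was frozen, at −7 °C, and extended constructs were gel-excised, bound to streptavidin beads and amplified by RT-PCR, in one selection round done in triplicate. Fitness is the logarithm of a genotype's enrichment divided by that of the wild type, from inverse-variance-weighted replicate averages of Illumina-sequenced inputs and outputs. The base of the logarithm is 2, and genotypes needed ≥10 input reads and ≥1 read per output.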

Variant	polymerase ribozyme fitness (log ratio)
GACCAAUCUGCCCUCAGAGCUCGAGAACAUCUUCGGAUGCUGAGGAGGUAGGCUUCGGUGGCGCGAUAACGCCAACGUCCUCAACCUCCAAUGCAUCCCACCACAUGAUGAUGCCUGAAGAGCCUUGGUUUUUUG [A41U C49U G69A]	-6.56
GACCAAUCUGCCCUCAGAGCUCGAGAACAUCUUCGGAUGCUGAGGAGGCAGGCUUCGGUGGCGUGAUAGCGCCAACGUCCUCAACCUCCAAUGCAUCCCACCACAUGAUGAUGCCUGAAGAGCCUUGGUUUUUUG [A41U C64U]	-1.24
GACCAAUCUGCCCUCAGAGCUCGAGAACAUCUUCGGAUGCUGAGGAGGCAGGCUUCGGUGGCGCGAUAGCGCCAACGUCCUCAACCUCCAAUGCAUCCCACCACAUGAUGAUGCCUGAAGAGCCUUGGUUUUUUU [A41U G135U]	-2.4
GACCAAUCUGCCCUCAGAGCUCGAGAACAUCUUCGGAUGCUGAGGAGGCAGGCUUCGGUGGCGCGAUAGCGCCAACGUCCUCAACCUCCAAUGCAUCCCACCACAUGAUGAUGCCUGAAGAGCGUUGGUUUUUUG [A41U C124G]	0.981
GACCAAUCUGCCCUCAGAGCUCGAGAACAUCUUCGGAUGCUGAGGAGGCAGGCUUCGGUGGCGCGAUAGCGCCAACGUCCUCAACCUCUAAUGCAUCCCACCACAUGAUGAUUCCUUAAGAGCCUUGGUUUUUUG [A41U C89U G113U G117U]	-5.95
GACCAAUCUGCCCUCAGAGCUCGAGAACAUCUUCGGAUGCUGAGGAGGCAGGCUUCGGUGGCACGAUAGCGCCAACGACCUCUACCUCCAAUGCAUCCCACCACAUGAUGAUGCCUGAAGAGCCUUGGUUUUUUG [A41U G63A U78A A83U]	-4.53
GACCAAUCUGCCCUCAGAGCUCGAGAACAUCUUCGGAUGCUGAAGAGGCAGGCUUCGGUGGCGCGAUAGCGCCAACGUCCUCAACCUCCAAUGCAUCCCACCACAUGAUGAUGCCUGAAGAGCCUUGGUUUUUUG [A41U G44A]	-2.2
GACCAAUCUGCCCUCAGAGCUCGAGAACAUCUUCGGAUGCUGAGUAGGCAGGCUUCGGUGGCGCGAUAGCGCCAACGUCCUCAACCUCCAAUGCAUCCCACCACAUGAUGAUGCCUGAAGAGCCUUGGUUUUUUG [A41U G45U]	-1.99
GACCAAUCUGCCCUCAGAGCUCGAGAACAUCUUCGGAUGCUGAGGAGCCAGGCUUCGGUGGCGCGAUAGUGCCAACGUCCUCAACCUCCAAUGCAUCCCACCACAUGAUGAUGCCUGAAGAGCCUUGGUUUUUUG [A41U G48C C70U]	-3.25
GACCAAUCUGCCCUCAGAGCUCGAGAACAUCUUCGGAUGCUGAGGAGGCAGGCUUCGGUGGCGCGAUAGCGCCAACGUCCUCAACCUCCAAUGCAUCCCACCACAUGAUGAUGCCUGAAUAGCCUUGGUUUUUUG [A41U G120U]	-1.11
GACCAAUCUGCCCUCAGAGCUCGAGAACAUCUUCGGAUGCUGAGGAGGCAGGCUUCGGUGGCGCGAUAGCGCCAACGUCCUCAACGUCCAAUGCUUCCCACCACAUGAUGAUGCCUGAAGAGCCUUGGUUUUUUG [A41U C86G A95U]	-3.96
GACCAAUCUGCCCUCAGAGCUCGAGAACAUCUUCGGAUGCUGAGGAGGCAGGCUUCGGUGGCCCGAUAGCGCCAACGUCCUCAACCUCCAAUGCCUCCCACCACAUGAUGAUGCCUGAAGAGCCUUGGUUUUUUG [A41U G63C A95C]	-3.24
GACCAAUCUGCCCUCAGAGCUCGAGAACAUCUUCGGAUGCUGAGGAGGCAGGCUUCGGUGGCGCGAUAGCGCCAACUUCCUCAACCUGCAAUGCAUCCCACCACAUGAUGUUGCCUGAAGAGCCUUGGUUUUUUG [A41U G77U C88G A111U]	-6.76
GACCAAUCUGCCCUCAGAGCUCGAGAACAUCUUCGGAUGCUGAGGAGGCAGGCUUCGGUGGCGCGAUAGCGACAACGUCCUCAACCUCCAAUGCAUCCCACCACAUGAUGAUGCCUGAAGAGCCUUGGUUUUUUG [A41U C72A]	-1.82
GACCAAUCUGCCCUCAGAGCUCGAGAACAUCUUCGGAUGCUGAGGAGGCAGGCUUCGGUGGCGCGAUAGCGCCAACGUCCUUAACCUCCAAUGCAUCCCACCACAUGAUGAUCCCUGAAGAGCCUUGGUUUUUUG [A41U C82U G113C]	-2.61
GACCAAUCUGCCCUCAGAGCUCGAGAACAUCUUCGGAUGCUGAGGAGGCAGGCUUCGGUGGCGCGAUAGCGCCAAAGUCCACAACCUCCAAUGCAUCCCACCACAUGAUGAUGCCUGAAGAGCCUUGGUUUUUUG [A41U C76A U81A]	-1.77
GACCAAUCUGCCCUCAGAGCUCGAGAACAUCUUCGGAUGCUGAGCAGGCAGGCUUCGGUGGCGCGAUAGCGCCAACGUCCUCAACCUCCAAUGCAUCCCACCACAUGAUGAUGACUGAAGAGCCUUGGUUUUUUG [A41U G45C C114A]	-4.37
GACCAAUCUGCCCUCAGAGCUCGAGAACAUCUUCGGAUGCUGAGGAGGCAGGCUUCGGUGGCGCGAUAGCGCCAACGUCCUCAACCUCCAAUGCAUCCCACCAUAUGAUGAUGCCUGAAGAGCUUUGGUUUUUUG [A41U C104U C124U]	0.576
GACCAAUCUGCCCUCAGAGCUCGAGAACAUCUUCGGAUGCUCAGGAGGCAGGAUUCGGUGGCGCGAUAGCGCCAACGUCCUCAAUCUCCAAUGCAUCCCACCACAUGAUGAUGCCUGAAGAGCCUUGGUUUUUUG [A41U G42C C53A C85U]	-4.01
GACCAAUCUGCCCUCAGAGCUCGAGAACAUCUUCGGAUGCUGAGGAGGCAGGCUUCGGUGGCGUGAUAGCGCCAACGUCCUCAACCUCCAAUGUAUCCCACCACAUGAUGAUGCCUGAAGAGCCUUGGUUUUGUG [A41U C64U C94U U133G]	-1.82
GACCAAUCUGCCCUCAGAGCUCGAGAACAUCUUCGGAUGCUGAGGAGGCAGGCUUCGGUGGCGCGAUAGCGCCAACGUCCUCAACCUCCAAUGCAUCCCACCACAUGAUAAUGCCUGAAGAGCCUUGGUUUUUUG [A41U G110A]	-2.6
